# Experimental data: patent US20210332339
# Key:
# Test in all cases: cell_activity
# [1] = system: ZFA36-ND3 (Artificial (ND3 from Clostridium sp. 7_2_43FAA))
# [2] = system: ZFA36-ND4 (Artificial (ND4 from Clostridiales bacterium))
# [3] = system: ZFA36-FokI (FokI-ND ZFN) (Artificial)
# [4] = system: ZFA36-ND1 (Artificial (ND1 from Bacillus sp. SGD-V-76))
# [5] = system: ZFA36-FokI-Sharkey (Artificial); settings: SSA reporter HEK293T
# [6] = system: TALE-ROSA26-FokI right (Artificial); settings: SSA reporter pair with left TALEN, close to reference
# [7] = system: TALE-ROSA26-ND1 right (Artificial); settings: SSA reporter pair with left TALEN
# ZFL1-ND1 (Artificial) = settings: SSA, ZFL1-ND1 alone
# [8] = system: TALE-HPRT1-ND1 right (Artificial); settings: SSA reporter pair with left TALEN
# [9] = system: TALE-HPRT1-FokI right (Artificial); settings: SSA reporter pair with left TALEN
# [10] = system: TALE-HPRT1-ND1 left (Artificial); settings: SSA reporter pair with right TALEN
# [11] = system: TALE-HPRT1-FokI left (Artificial); settings: SSA reporter pair with right TALEN
# [12] = system: TALE-ROSA26-FokI left (Artificial); settings: SSA reporter pair with right TALEN, close to reference
# [13] = system: TALE-ROSA26-ND1 left (Artificial); settings: SSA reporter pair with right TALEN
# Sequence of ZFA36-FokI (FokI-ND ZFN) (Artificial) (chain, as listed by the source): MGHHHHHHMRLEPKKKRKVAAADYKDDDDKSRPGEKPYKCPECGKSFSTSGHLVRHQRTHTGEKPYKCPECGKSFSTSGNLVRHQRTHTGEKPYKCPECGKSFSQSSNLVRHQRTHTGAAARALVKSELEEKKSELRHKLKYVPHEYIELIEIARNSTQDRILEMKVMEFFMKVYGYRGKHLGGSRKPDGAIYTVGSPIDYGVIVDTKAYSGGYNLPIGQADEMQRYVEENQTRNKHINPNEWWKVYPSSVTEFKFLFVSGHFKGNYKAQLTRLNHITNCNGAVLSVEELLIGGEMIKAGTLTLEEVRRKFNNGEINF
# Sequence of ZFL1-ND1 (Artificial) (chain, as listed by the source): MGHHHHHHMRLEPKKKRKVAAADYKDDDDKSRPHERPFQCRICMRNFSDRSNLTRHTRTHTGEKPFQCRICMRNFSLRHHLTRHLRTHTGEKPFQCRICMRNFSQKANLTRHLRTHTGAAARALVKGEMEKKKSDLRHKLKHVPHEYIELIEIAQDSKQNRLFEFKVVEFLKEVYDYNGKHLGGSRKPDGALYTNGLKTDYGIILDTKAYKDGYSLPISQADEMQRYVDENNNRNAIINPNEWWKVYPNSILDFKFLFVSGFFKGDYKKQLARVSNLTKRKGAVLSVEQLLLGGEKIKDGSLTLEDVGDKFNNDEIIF
# Sequence of ZFA36-FokI-Sharkey (Artificial) (chain, as listed by the source): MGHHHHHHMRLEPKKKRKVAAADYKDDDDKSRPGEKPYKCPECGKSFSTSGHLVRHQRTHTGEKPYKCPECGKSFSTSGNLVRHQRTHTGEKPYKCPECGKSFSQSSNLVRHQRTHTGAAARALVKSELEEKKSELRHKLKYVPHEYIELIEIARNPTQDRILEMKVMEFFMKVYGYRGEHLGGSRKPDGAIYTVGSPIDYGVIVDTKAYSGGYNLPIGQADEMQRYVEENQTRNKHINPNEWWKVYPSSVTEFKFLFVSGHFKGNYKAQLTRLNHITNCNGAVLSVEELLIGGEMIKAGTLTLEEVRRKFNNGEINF
sequence,measurement,setting,value
ACCATCTTCAAGAGAGAAGATGGC (double strand) [ZFA36-ZFA36 CHO-K1 2nd site],activity (% mutated clones),"[1]; CHO-K1, 3/16",18.8
same,activity (% mutated clones),"[2]; CHO-K1, 0/14",0
ACCATCTTCCACTCTGAAGATGGA (double strand) [ZFA36-ZFA36 CHO-K1 1st site],activity (% mutated clones),"[1]; CHO-K1, 0/15, Cel-I about 25-45% of FokI depending on site",0
same,activity (% mutated clones),"[2]; CHO-K1, 0/16, no cleavage detected",0
ACCATCTTCNNNNNNGAAGATGGT (double strand) [ZFA36-6bp-ZFA36 site],binding signal,"[3]; SSA reporter HEK293T, reference",1
same,binding signal (fold of ZFA36-FokI),[4]; SSA reporter HEK293T,> 1.2
same,binding signal (fold of ZFA36-FokI),[5],1.5
same,binding signal (fold of ZFA36-FokI),[1]; SSA reporter HEK293T,0.2
same,binding signal (fold of ZFA36-FokI),[2]; SSA reporter HEK293T,0.2
GCCTCGACTTGCAGATCA (double strand) [ROSA26 right half-site (top strand)],binding signal (fold of ZFA36-FokI),[6],1
same,binding signal (fold of TALE-ROSA26-FokI),[7],2
GTCACCTTCNNNNNNGAAGATGGT (double strand) [ZFL1-6bp-ZFA36 site],binding signal,"[3]; SSA, ZFA36-FokI alone",35%
same,binding signal,"[4]; SSA, ZFA36-ND1 alone",90%
same,binding signal,ZFL1-ND1 (Artificial),40%
TCCTAATCACTATGTCGA (double strand) [HPRT1 right half-site (top strand)],binding signal (fold of TALE-HPRT1-FokI),[8],2
same,binding signal (fold of ZFA36-FokI),[9],0.5
TGAACCAGGCTATGACCT (double strand) [HPRT1 left half-site],binding signal (fold of TALE-HPRT1-FokI),[10],2
same,binding signal (fold of ZFA36-FokI),[11],0.5
TGCCCAGAAGACTCCCG (double strand) [ROSA26 left half-site],binding signal (fold of ZFA36-FokI),[12],1
same,binding signal (fold of TALE-ROSA26-FokI),[13],2
